Assay results reported in paper PMC4344526.

Tests used:
[1] = system: Csy complex (Csy1-4 + crRNA, Type I-F) (Pseudomonas aeruginosa PA14); assay: EMSA; conditions: EMSA: 20 mM HEPES pH 7.5, 100 mM KCl, 5% glycerol, 1 mM TCEP, 2 mM EDTA, 37 C, 15 min (competition 5 min), SPR: 20 mM HEPES pH 7.5, 100 mM KCl, 0.02%
[2] = system: Csy complex (Csy1-4 + crRNA, Type I-F) (Pseudomonas aeruginosa PA14); assay: SPR; conditions: ka 1.9e7 M-1 s-1, half-life 6.3 s, same as non-target, EMSA Kd >2 orders higher, EMSA: 20 mM HEPES pH 7.5, 100 mM KCl, 5% glycerol, 1 mM TCEP, 2 mM EDTA, 37 C, 15 min (competition 5 min), SPR: 20 mM HEPES pH 7.5, 100 mM KCl, 0.02%

In the case of dsDNA target, 7-deazaguanine PAM, the binding signal (fold increase in Kd vs N1) ([1]; both PAM guanines replaced by 7-deazaguanine) is reported as 120.

“dsDNA target, T-A/T-A PAM, duplexed (EMSA)” gave a binding signal (fold weaker vs N1) [1] of 100.

With dsDNA target, inosine PAM the binding signal (fold increase in Kd vs N1) ([1]; both PAM guanines replaced by inosine) was > 1000.

dsDNA target, protospacer + G-C/G-C PAM showed a Kd [1] of 1 nM.

With “dsDNA target, protospacer + T-A/T-A PAM (SPR)” the Kd [2] was 6 nM.

For ssDNA target, protospacer + GG PAM, the Kd [1] was 0.5 nM.
